Article PMC4960239, “Flavoprotein-Mediated Tellurite Reduction: Structural Basis and Applications to the Synthesis of Tellurium-Containing Nanostructures” (Frontiers in Microbiology, 2016)

Experiments:
O=[Te](O)O = assay: purified protein; type: biochemical, Escherichia coli; conditions: 1 mM beta-mercaptoethanol
GorA = molecular target: T1, GorA (Escherichia coli, UniProt P06715); assay: Te0 formation, non-linear fit; type: biochemical; conditions: 1 mM NADPH, 1 mM beta-mercaptoethanol, pH 9, 37 °C; substrate inhibition
T1 construct: gene gor; His-tagged full-length, ASKA clone, HisTrap purified, ~49 kDa
T1 sequence (P06715 whole entry): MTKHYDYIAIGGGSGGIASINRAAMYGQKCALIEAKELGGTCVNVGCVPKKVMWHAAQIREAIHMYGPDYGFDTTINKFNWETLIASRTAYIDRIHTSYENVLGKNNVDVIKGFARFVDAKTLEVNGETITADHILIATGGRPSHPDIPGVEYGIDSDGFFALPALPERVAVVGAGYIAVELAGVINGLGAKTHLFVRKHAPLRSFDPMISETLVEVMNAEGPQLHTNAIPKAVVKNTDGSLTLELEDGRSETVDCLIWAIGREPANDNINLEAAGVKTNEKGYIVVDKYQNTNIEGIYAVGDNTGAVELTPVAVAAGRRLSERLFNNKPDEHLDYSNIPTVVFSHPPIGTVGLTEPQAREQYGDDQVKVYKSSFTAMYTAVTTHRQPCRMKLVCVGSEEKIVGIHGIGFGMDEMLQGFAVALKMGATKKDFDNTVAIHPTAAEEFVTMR

TrxB = molecular target: T2, TrxB (Escherichia coli, UniProt P0A9P4); assay: Te0 formation, non-linear fit; type: biochemical; conditions: 1 mM NADPH, 1 mM beta-mercaptoethanol, pH 10, 37 °C; substrate inhibition
T2 construct: His-tagged full-length, ASKA clone, HisTrap purified, ~35 kDa
T2 sequence (P0A9P4 2-321): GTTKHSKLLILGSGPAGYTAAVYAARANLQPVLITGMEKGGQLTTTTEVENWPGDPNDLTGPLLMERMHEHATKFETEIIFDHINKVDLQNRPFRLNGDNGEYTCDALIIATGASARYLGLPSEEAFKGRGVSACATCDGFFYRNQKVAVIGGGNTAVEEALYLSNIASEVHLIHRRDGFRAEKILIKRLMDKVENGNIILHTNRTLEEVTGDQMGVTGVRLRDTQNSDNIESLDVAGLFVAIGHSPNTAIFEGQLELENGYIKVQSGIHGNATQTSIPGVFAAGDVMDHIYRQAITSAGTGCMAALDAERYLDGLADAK

E3 = molecular target: T3, E3 (Escherichia coli, UniProt P0A9P0); assay: Te0 formation, non-linear fit; type: biochemical; conditions: 1 mM NADPH, 1 mM beta-mercaptoethanol, pH 6, 37 °C; substrate inhibition
T3 construct: gene lpdA; His-tagged full-length, ASKA clone, HisTrap purified, ~56 kDa
T3 sequence (P0A9P0 2-474): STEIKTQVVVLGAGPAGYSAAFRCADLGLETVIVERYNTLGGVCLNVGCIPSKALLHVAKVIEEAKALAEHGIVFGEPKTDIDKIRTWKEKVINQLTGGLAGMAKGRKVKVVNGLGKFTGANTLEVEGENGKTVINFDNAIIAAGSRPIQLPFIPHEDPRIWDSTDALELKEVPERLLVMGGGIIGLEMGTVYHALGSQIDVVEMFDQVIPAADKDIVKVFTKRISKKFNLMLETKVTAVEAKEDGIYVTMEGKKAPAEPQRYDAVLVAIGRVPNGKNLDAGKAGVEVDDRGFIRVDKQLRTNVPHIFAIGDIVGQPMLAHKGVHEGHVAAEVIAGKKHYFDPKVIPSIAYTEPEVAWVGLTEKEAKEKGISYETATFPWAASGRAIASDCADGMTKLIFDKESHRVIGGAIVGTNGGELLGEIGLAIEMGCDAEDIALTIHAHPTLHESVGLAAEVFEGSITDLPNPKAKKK

Compound: NorW (Escherichia coli K-12)
- Km (O=[Te](O)O; 1 mM NADH, pH 11, 42 °C): 694.9 µM
- Vmax (O=[Te](O)O; 1 mM NADH, pH 11, 42 °C): 5350 µmol/min/mg

Compound: E3 (Escherichia coli K-12)
- Km (O=[Te](O)O; 1 mM NADPH, pH 6, 37 °C): 47.94 µM
- Vmax (O=[Te](O)O; 1 mM NADPH, pH 6, 37 °C): 84.5 µmol/min/mg

Compound: TrxB (Escherichia coli K-12)
- Km (O=[Te](O)O; 1 mM NADPH, pH 10, 37 °C): 114.5 µM
- Vmax (O=[Te](O)O; 1 mM NADPH, pH 10, 37 °C): 9590 µmol/min/mg

Compound: AhpF (Escherichia coli K-12)
- Km (O=[Te](O)O; 1 mM NADH, pH 10, 37 °C): 819.6 µM
- Vmax (O=[Te](O)O; 1 mM NADH, pH 10, 37 °C): 77900 µmol/min/mg

Compound: O=[Te](O)O [tellurite]
- Ki apparent (GorA): 232.7 µM
- Ki apparent (TrxB): 37.13 µM
- Ki apparent (E3): 63.01 µM

Compound: YkgC (Escherichia coli K-12)
- Km (O=[Te](O)O; 1 mM NADH, pH 9, 37 °C): 517.1 µM
- Vmax (O=[Te](O)O; 1 mM NADH, pH 9, 37 °C): 2700 µmol/min/mg

Compound: GorA (Escherichia coli K-12)
- Km (O=[Te](O)O; 1 mM NADPH, pH 9, 37 °C): 89.47 µM
- Vmax (O=[Te](O)O; 1 mM NADPH, pH 9, 37 °C): 6310 µmol/min/mg
